Key:
murine BAFF = murine BAFF (murine, UniProt Q9WU72 127-309, limits assumed); assay: not described
[1] = biological target: T1, recombinant human soluble BAFF (human, UniProt Q9Y275 134-285); assay: MSD-SET with biotinylated recombinant human soluble BAFF, N=3
T1 construct: domain: soluble BAFF; also called human BAFF; soluble human BAFF trimer
Protocol: Binding affinity and stoichiometry of the exemplified bispecific antibody to human BAFF is measured by MSD-SET using purified recombinant human soluble BAFF (expressed from HEK293 cells). Purified recombinant BAFF is biotinylated using EZ-Link Sulfo-NHS-LC biotin reagent (Thermo Scientific, p/n. 21335).
Multi-array 96-well assay plates (Meso Scale Discovery, p/n. L15XA-3) are coated with 3.5 μg/mL of bispecific antibody and incubated overnight at 4° C. Following incubation, the plates are washed three times with PBS, then blocked using 3% Blocker A solution for 45 minutes at room temperature. The plates are then washed again with PBS. Exemplified bispecific antibody, starting at a concentration of 224 pM, is serially diluted (using 2-fold dilutions) in a V-bottom 96-well plate creating 12 different bispecific antibody concentrations. 7 pM of biotinylated recombinant BAFF is mixed with each dilution of exemplified bispecific antibody and then incubated at 37° C. for 36-48 hours (to reach equilibrium). Equilibrated samples are added to a well of the MSD multi-array 96-well assay plate previously coated with exemplified bispecific antibody; samples are mixed for 2.5 minutes, and then washed three times with PBS. […] 1× Read Buffer T (Meso Scale Discovery, p/n. R92TC-1) is added to each well and plates are read on a MSDSI6000 plate reader (Meso Scale Discovery, Rockville Md.). […]

FcγIIIa (V158) receptor = FcγIIIa (V158) receptor (UniProt P08637 17-254); assay: cell-based or functional assay
FcγIIIa (F158) receptor = FcγIIIa (F158) receptor (UniProt P08637 17-254); assay: cell-based or functional assay
Sequence of FcγIIIa (F158) receptor (P08637 17-254): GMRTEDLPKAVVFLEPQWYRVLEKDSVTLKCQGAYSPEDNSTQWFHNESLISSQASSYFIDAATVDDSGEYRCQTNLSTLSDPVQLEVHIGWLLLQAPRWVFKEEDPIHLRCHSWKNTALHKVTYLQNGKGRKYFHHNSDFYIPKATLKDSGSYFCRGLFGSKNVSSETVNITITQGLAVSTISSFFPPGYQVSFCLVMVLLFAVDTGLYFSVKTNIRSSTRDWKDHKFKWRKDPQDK

Sequence of murine BAFF (Q9WU72 127-309 limits assumed): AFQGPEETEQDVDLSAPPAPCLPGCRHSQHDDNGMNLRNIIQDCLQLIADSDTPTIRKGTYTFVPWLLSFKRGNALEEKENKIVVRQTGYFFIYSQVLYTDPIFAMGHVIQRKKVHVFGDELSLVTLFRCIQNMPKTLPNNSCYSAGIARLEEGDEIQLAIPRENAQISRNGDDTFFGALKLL
Sequence of FcγIIIa (V158) receptor (P08637 17-254 F176V): as the sequence (P08637 17-254) above, with F160V counted along it

- fold reduction in binding as compared to human BAFF (murine BAFF): ~250 fold
- Kd [1]: 0.3 pM
- EC50 of NFAT-luciferase reporter signal (ADCC), WIL2-S + Jurkat (V158) (FcγIIIa (V158) receptor): 4.61 pM
- EC50 of NFAT-luciferase reporter signal (ADCC), WIL2-S + Jurkat (F158) (FcγIIIa (F158) receptor): 31.4 pM
B1: exemplified bispecific antibody of Table 1 (anti-CD20 IgG1 mAb with anti-BAFF scFv linked at the N-terminus of each heavy chain) (bispecific antibody)
heavy: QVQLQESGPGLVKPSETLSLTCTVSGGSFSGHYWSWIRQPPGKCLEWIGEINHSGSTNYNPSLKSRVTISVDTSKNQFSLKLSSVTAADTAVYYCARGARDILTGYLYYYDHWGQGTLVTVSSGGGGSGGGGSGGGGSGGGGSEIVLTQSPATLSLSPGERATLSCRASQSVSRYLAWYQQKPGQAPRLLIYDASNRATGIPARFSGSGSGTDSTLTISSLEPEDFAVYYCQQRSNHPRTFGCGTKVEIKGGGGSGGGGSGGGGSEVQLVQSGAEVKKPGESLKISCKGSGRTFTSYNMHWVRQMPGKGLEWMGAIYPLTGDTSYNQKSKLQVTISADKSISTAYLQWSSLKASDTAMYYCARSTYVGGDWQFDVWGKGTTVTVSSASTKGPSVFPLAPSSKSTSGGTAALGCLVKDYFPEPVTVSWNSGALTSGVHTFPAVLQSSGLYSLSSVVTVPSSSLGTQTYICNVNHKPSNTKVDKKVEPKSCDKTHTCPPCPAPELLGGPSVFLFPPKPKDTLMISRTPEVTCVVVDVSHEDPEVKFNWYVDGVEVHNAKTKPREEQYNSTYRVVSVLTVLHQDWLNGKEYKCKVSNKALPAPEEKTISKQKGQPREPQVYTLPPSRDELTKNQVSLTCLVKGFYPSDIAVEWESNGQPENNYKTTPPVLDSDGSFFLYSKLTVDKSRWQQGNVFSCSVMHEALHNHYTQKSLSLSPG
light: EIVLTQSPGTLSLSPGERATLSCRASSSVPYIHWYQQKPGQAPRLLIYATSALASGIPDRFSGSGSGTDFTLTISRLEPEDFAVYYCQQWLSHPPTFGQGTKLEIKRTVAAPSVFIFPPSDEQLKSGTASVVCLLNNFYPREAKVQWKVDNALQSGNSQESVTEQDSKDSTYSLSSTLTLSKADYEKHKVYACEVTHQGLSSPVTKSFNRGEC
modifications: glycosylated at asparagine residue 566 of SEQ ID NO:1
notes: also called Exemplified Bispecific Ab; exemplified antibody

Reference: patent US20160289342A1 (Eli Lilly, published 2016)
